Laboratory results reported in patent publication US6416738B1, “Pretargeting methods and compounds” (NeoRx Corporation, priority 1973, dated 2002).

Molecular target: T1, NR-LU-10 antigen (Homo sapiens, UniProt P16422)
T1 construct: Positive NR-LU-10 tissue reactivity indicates NR-LU-10 antigen expression by such tissues; from tissue; host or cells: carcinoma and normal tissue specimens
T1 sequence (P16422 24-314): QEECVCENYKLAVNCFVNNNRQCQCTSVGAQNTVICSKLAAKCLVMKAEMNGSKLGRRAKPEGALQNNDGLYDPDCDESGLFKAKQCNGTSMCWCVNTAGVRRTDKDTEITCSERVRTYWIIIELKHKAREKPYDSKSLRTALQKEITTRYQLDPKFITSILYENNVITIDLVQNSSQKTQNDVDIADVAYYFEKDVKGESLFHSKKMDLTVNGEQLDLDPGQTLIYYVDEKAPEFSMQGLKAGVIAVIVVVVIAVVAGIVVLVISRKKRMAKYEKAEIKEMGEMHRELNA
Assay: NR-LU-10 reactivity with normal tissues (Table B)
Format: binding
Excerpt: Radioimmunoassays, immunoprecipitation and Fluorescence-Activated Cell Sorter (FACS) analysis were used to obtain reactivity profiles of NR-LU-10. The NR-LU-10 target antigen was present on either fixed cultured cells or in detergent extracts of various types of cancer cells. For example, the NR-LU-10 antigen is found in small cell lung, non-small cell lung, colon, breast, renal, ovarian, pancreatic, and other carcinoma tissues. Tumor reactivity of the NR-LU-10 antibody is set forth in Table A, while NR-LU-10 reactivity with normal tissues is set forth in Table B. The values in Table B are obtained as described below. Positive NR-LU-10 tissue reactivity indicates NR-LU-10 antigen expression by such tissues.
The tissue specimens were scored in accordance with three reactivity parameters: (1) the intensity of the reaction; (2) the uniformity of the reaction within the cell type; and (3) the percentage of cells reactive with the antibody. These three values are combined into a single weighted comparative value between 0 and 500, with 500 being the most intense reactivity. This comparative value facilitates comparison of different tissues. Table B includes a summary reactivity value, the number of tissue samples examined and the number of samples that reacted positively with NR-LU-10.

[1] = Salivary Gland: Acinar Epithelium
[2] = Salivary Gland: Duct Epithelium
[3] = Spleen: Lymphoid Follicle-Central
[4] = Spleen: Lymphoid Follicle-Peripheral
[5] = Spleen: Trabecular Smooth Muscle
[6] = Stomach: Muscularis Mucosa/Externa
[7] = Stromal Tissue: Arteriolar Smooth Muscle
[8] = Stromal Tissue: Fibrous Connective Tissue
[9] = Stromal Tissue: Mast Cells/Eosinophils
[10] = Tonsil: Lymphoid Follicle-Central
[11] = Tonsil: Lymphoid Follicle-Peripheral
[12] = Urinary Bladder: Mucosal Epithelium
[13] = Vagina/Cervix: Epithelial Glands
[14] = Vagina/Cervix: Squamous Epithelium

B1: NR-LU-10: 150 kilodalton IgG2b monoclonal antibody recognizing an approximately 40 kilodalton glycoprotein antigen expressed on most carcinomas (antibody, V domains shown)
VH: EVQLQQSGAELVKPGASVRLSCTASGFNIKDTYMHWVIERPEQGLEWIGRIDPANGNTKCDPKFQGKATITADTSSNTAYLQLSSLTSEDTAVYYCSREVLTGTWSLDYWGQGTSVTVSS
VL: DIQMIQSPSSMFASLGDRVSLSCRASQGIRGNLDWYQQKPGGTIKLLIYSTSNLNSGVPSRFSGSGSGSDYSLTISSLDSEDFADYYCLQRNAYPYTFGGGTKLEIK
Summary Reactivity (Nerve: Endoneurium): 0 | # Pos/Exam (Nerve: Neurolemma): 0/2 | Summary Reactivity (Nerve: Neurolemma): 0 | # Pos/Exam (Nerve: Neuron): 0/2 | Summary Reactivity (Nerve: Neuron): 0 | # Pos/Exam (Nerve: Perineurium): 0/2 | Summary Reactivity (Nerve: Perineurium): 0 | # Pos/Exam (Ovary: Corpus Luteum): 0/3 | Summary Reactivity (Ovary: Corpus Luteum): 0 | # Pos/Exam (Ovary: Eipthelium): 1/1 | Summary Reactivity (Ovary: Eipthelium): 270 | # Pos/Exam (Ovary: Granulosa): 1/3 | Summary Reactivity (Ovary: Granulosa): 400 | # Pos/Exam (Ovary: Serosa): 0/3 | Summary Reactivity (Ovary: Serosa): 0 | # Pos/Exam (Ovary: Theca): 0/3 | Summary Reactivity (Ovary: Theca): 0 | # Pos/Exam (Oviduct: Epithelium): 1/1 | Summary Reactivity (Oviduct: Epithelium): 500 | # Pos/Exam (Oviduct: Smooth Muscle): 0/3 | Summary Reactivity (Oviduct: Smooth Muscle): 0 | # Pos/Exam (Pancreas: Acinar Cell): 3/3 | Summary Reactivity (Pancreas: Acinar Cell): 500 | # Pos/Exam (Pancreas: Duct Epthelium): 3/3 | Summary Reactivity (Pancreas: Duct Epthelium): 500 | # Pos/Exam (Pancreas: Islet Cell): 3/3 | Summary Reactivity (Pancreas: Islet Cell): 500 | # Pos/Exam (Peritoneum: Mesothelium): 0/1 | Summary Reactivity (Peritoneum: Mesothelium): 0 | # Pos/Exam (Pituitary: Adenohypophysis): 2/2 | Summary Reactivity (Pituitary: Adenohypophysis): 500 | # Pos/Exam (Pituitary: Neurohypophysis): 0/2 | Summary Reactivity (Pituitary: Neurohypophysis): 0 | # Pos/Exam (Placenta: Trophoblasts): 0/3 | Summary Reactivity (Placenta: Trophoblasts): 0 | # Pos/Exam (Prostate: Concretions): 0/3 | Summary Reactivity (Prostate: Concretions): 0 | # Pos/Exam (Prostate: Glandular Epithelium): 3/3 | Summary Reactivity (Prostate: Glandular Epithelium): 400 | # Pos/Exam (Prostate: Smooth Muscle): 0/3 | Summary Reactivity (Prostate: Smooth Muscle): 0 | # Pos/Exam (Rectum: Lymph Node): 0/2 | Summary Reactivity (Rectum: Lymph Node): 0 | # Pos/Exam (Rectum: Mucosal Epithelium): 0/2 | Summary Reactivity (Rectum: Mucosal Epithelium): 0 | # Pos/Exam (Rectum: Muscularis Externa): 0/1 | Summary Reactivity (Rectum: Muscularis Externa): 0 | # Pos/Exam (Rectum: Muscularis Mucosa): 0/3 | Summary Reactivity (Rectum: Muscularis Mucosa): 0 | # Pos/Exam (Rectum: Nerve Ganglia): 0/3 | Summary Reactivity (Rectum: Nerve Ganglia): 0 | # Pos/Exam [1]: 3/3 | Summary Reactivity [1]: 500 | # Pos/Exam [2]: 3/3 | Summary Reactivity [2]: 500 | # Pos/Exam (Skin: Apocrine Glands): 3/3 | Summary Reactivity (Skin: Apocrine Glands): 280 | # Pos/Exam (Skin: Basal Layer): 3/3 | Summary Reactivity (Skin: Basal Layer): 33 | # Pos/Exam (Skin: Epithelium): 1/3 | Summary Reactivity (Skin: Epithelium): 10 | # Pos/Exam (Skin: Follicle): 1/1 | Summary Reactivity (Skin: Follicle): 190 | # Pos/Exam (Skin: Stratum Corneum): 0/3 | Summary Reactivity (Skin: Stratum Corneum): 0 | # Pos/Exam (Spinal Cord: Axons, Myelinated): 0/2 | Summary Reactivity (Spinal Cord: Axons, Myelinated): 0 | # Pos/Exam (Spinal Cord: Microglial): 0/2 | Summary Reactivity (Spinal Cord: Microglial): 0 | # Pos/Exam (Spinal Cord: Neurons): 0/2 | Summary Reactivity (Spinal Cord: Neurons): 0 | # Pos/Exam [3]: 0/3 | Summary Reactivity [3]: 0 | # Pos/Exam [4]: 0/3 | Summary Reactivity [4]: 0 | # Pos/Exam [5]: 0/3 | Summary Reactivity [5]: 0 | # Pos/Exam (Stomach: Chief Cells): 3/3 | Summary Reactivity (Stomach: Chief Cells): 290 | # Pos/Exam (Stomach: Mucosal Epithelium): 3/3 | Summary Reactivity (Stomach: Mucosal Epithelium): 367 | # Pos/Exam [6]: 0/3 | Summary Reactivity [6]: 0 | # Pos/Exam (Stomach: Parietal Cells): 3/3 | Summary Reactivity (Stomach: Parietal Cells): 290 | # Pos/Exam (Stomach: Smooth Muscle): 0/3 | Summary Reactivity (Stomach: Smooth Muscle): 0 | # Pos/Exam (Stromal Tissue: Adipose): 0/63 | Summary Reactivity (Stromal Tissue: Adipose): 0 | # Pos/Exam [7]: 0/120 | Summary Reactivity [7]: 0 | # Pos/Exam (Stromal Tissue: Endothelium): 0/120 | Summary Reactivity (Stromal Tissue: Endothelium): 0 | # Pos/Exam [8]: 0/120 | Summary Reactivity [8]: 0 | # Pos/Exam (Stromal Tissue: Macrophages): 0/117 | Summary Reactivity (Stromal Tissue: Macrophages): 0 | # Pos/Exam [9]: 0/86 | Summary Reactivity [9]: 0 | # Pos/Exam (Testis: Interstitial Cells): 0/3 | Summary Reactivity (Testis: Interstitial Cells): 0 | # Pos/Exam (Testis: Sertoli Cells): 3/3 | Summary Reactivity (Testis: Sertoli Cells): 93 | # Pos/Exam (Thymus: Hassal's Epithelium): 3/3 | Summary Reactivity (Thymus: Hassal's Epithelium): 147 | # Pos/Exam (Thymus: Hassal's Keratin): 3/3 | Summary Reactivity (Thymus: Hassal's Keratin): 333 | # Pos/Exam (Thymus: Lymphoid Cortex): 0/3 | Summary Reactivity (Thymus: Lymphoid Cortex): 0 | # Pos/Exam (Thymus: Lymphoid Medulla): 3/3 | Summary Reactivity (Thymus: Lymphoid Medulla): 167 | # Pos/Exam (Thyroid: C-Cells): 0/3 | Summary Reactivity (Thyroid: C-Cells): 0 | # Pos/Exam (Thyroid: Colloid): 0/3 | Summary Reactivity (Thyroid: Colloid): 0 | # Pos/Exam (Thyroid: Follicular Epithelium): 3/3 | Summary Reactivity (Thyroid: Follicular Epithelium): 500 | # Pos/Exam (Tonsil: Epithelium): 1/3 | Summary Reactivity (Tonsil: Epithelium): 500 | # Pos/Exam [10]: 0/3 | Summary Reactivity [10]: 0 | # Pos/Exam [11]: 0/3 | Summary Reactivity [11]: 0 | # Pos/Exam (Tonsil: Mucus Gland): 1/1 | Summary Reactivity (Tonsil: Mucus Gland): 300 | # Pos/Exam (Tonsil: Striated Muscle): 0/3 | Summary Reactivity (Tonsil: Striated Muscle): 0 | # Pos/Exam (Umbilical Cord: Epithelium): 0/3 | Summary Reactivity (Umbilical Cord: Epithelium): 0 | # Pos/Exam [12]: 3/3 | Summary Reactivity [12]: 433 | # Pos/Exam (Urinary Bladder: Serosa): 0/1 | Summary Reactivity (Urinary Bladder: Serosa): 0 | # Pos/Exam (Urinary Bladder: Smooth Muscle): 0/3 | Summary Reactivity (Urinary Bladder: Smooth Muscle): 0 | # Pos/Exam (Uterus: Endometrial Epithelium): 3/3 | Summary Reactivity (Uterus: Endometrial Epithelium): 500 | # Pos/Exam (Uterus: Endometrial Glands): 3/3 | Summary Reactivity (Uterus: Endometrial Glands): 500 | # Pos/Exam (Uterus: Smooth Muscle): 0/3 | Summary Reactivity (Uterus: Smooth Muscle): 0 | # Pos/Exam [13]: 1/1 | Summary Reactivity [13]: 500 | # Pos/Exam (Vagina/Cervix: Smooth Muscle): 0/2 | Summary Reactivity (Vagina/Cervix: Smooth Muscle): 0 | # Pos/Exam [14]: 1/1 | Summary Reactivity [14]: 200
